Measured values as given in patent publication CN115521379A (NANJING JISHENG AOMA BIOLOGICAL PHARMACEUTICAL CO LTD, dated 2022).
Where a chain is given by its changes, count along the chain named. In names and notes the source's numbering stands. Blank lines part the entries; values can stand above or below the binder they belong to.

Assays:
[1] = biological target: T1, PD-1蛋白 (human, UniProt Q15116 25-167, limits assumed); assay: SPR (Biacore T200), antibody captured by anti-human Fc, PD-1 injected
T1 construct: Recombinant PD-1 protein used in ELISA, SPR and BLI; also called PD-1[B]; (biotinylated)

[2] = biological target: T1, PD-1蛋白; assay: binding ELISA on coated PD-1 protein
[3] = biological target: T1, PD-1蛋白; assay: competition ELISA: PD-L1 coated, biotinylated PD-1 0.5 ug/mL, antibody titrated

T1 sequence (Q15116 25-167 limits assumed): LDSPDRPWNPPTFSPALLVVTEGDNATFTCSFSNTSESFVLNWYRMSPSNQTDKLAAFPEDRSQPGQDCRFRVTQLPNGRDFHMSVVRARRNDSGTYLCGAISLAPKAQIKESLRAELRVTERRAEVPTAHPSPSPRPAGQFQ

B2: WT-Agly-YTE (antibody, V domains shown)
VH: EVQLQESGPGLVKPSETLSLTCTVSGFSLTSYAISWIRQPPGKGLEWIGVIWTGGGTNYNSALKSRVTISKDTSKNQVSLKLSSVTAADTAVYYCARDHYGTSPFVYWGQGTLVTVSS
VL: DIVLTQTPLSLSVTPGQPASISCRASESVDNYGISFMNWFLQKPGQPPQLLIYAASNQGSGVPDRFSGSGSGTDFTLKISRVEAEDVGVYFCQQSKEVPWTFGGGTKVEIK
notes: also called WT-Ag-YTE; WT-AGY-YTE
IC50 [3]: 0.411 µg/mL

B3: 1C2-3C11-Agly-YTE (antibody, V domains shown)
VH: B2 VH with D98E
VL: B2 VL with K96L
notes: also called 19D4-25-1C2-3C11与YTE突变、N297突变的Fc融合后得到的抗原结合蛋白
IC50 [3]: 0.369 µg/mL

B5: 3C11-Agly-YTE (antibody, V domains shown)
VH: B2 VH with D98E
VL: B2 VL
notes: also called 19D4-25-3C11与YTE突变、N297突变的Fc融合后得到的抗原结合蛋白
IC50 [3]: 0.543 µg/mL

B6: 1C2-3C11-W52F-Agly-YTE (antibody, V domains shown)
VH: B2 VH with W52F, D98E
VL: B2 VL with K96L
notes: 19D4-25-1C2-3C11 with W52F and an Fc with YTE (M252Y, S254T, T256E) and N297A; The label itself is not defined in the text
IC50 [3]: 0.495 µg/mL

More lines, now with the values ahead:

Kd [1]: 89.5 nM | koff [1]: 0.0105 s⁻¹ | kon [1]: 118000 M⁻¹ s⁻¹ | EC50 [2]: 0.192 nM
B1: hu19D4-25 (antibody, V domains shown)
VH: B2 VH
VL: B2 VL
notes: also called 人源化抗体hu19D4-25

IC50 [3]: 0.375 µg/mL
B4: 1C2-Agly (antibody, V domains shown)
VH: B2 VH
VL: B2 VL with K96L
notes: also called 19D4-25-1C2与N297突变的Fc融合后得到的抗原结合蛋白

IC50 [3]: 0.492 µg/mL
B7: 1C2-Agly-YTE (antibody, V domains shown)
VH: B2 VH
VL: B2 VL with K96L
notes: also called 19D4-25-1C2与YTE突变、N297突变的Fc融合后得到的抗原结合蛋白
